The values that follow come from the DeepSol protein solubility set.

A short description of this data set: soluble on expression in E. coli; label from the status in PepcDB or PDB records.
As to “GPGSMTDCWYIPEAVADRRDENRLSPNVPASYEVLGEAGIFYRHFDSEEVNDNIEGFIQPLLKKLNYQSYDVVNLSPANLGAEKFETLAEQHFMEHIHEDDEVRLILEGQGYFDVRDINDKWIRLLLKPGDCIVVPAGMYHRFTTDQSKCIKTLRIFKEAPQWIALNRGPEAEEKPARKEYLARLHAPAETAVGAVNGRTIFSLRYPLKLDAELTVITKRLLEQHSKQPLALAIYLTGSTDPTTGESWCPDCVLAKLHVARRFAELQGTYGKEHAIFLQLPVERASYLGNPNFFYRTHPILQLASVPTLLVLSPAKDAKEGGDVQWYDLLDVKVRTCDVDRTDVLNLE”, the “soluble on expression in E. coli” value was “soluble”.

Take “GPGSMTEHENTPRLELEAALGYSGNLPGSLVAHPDQQHLLYALGACIVIRDANDAESSEFFYGHNDKISCLTVSVSGRYVASGQVTHPGFQADVCIFDFAERRLIHRMLLHKVKVQALAFSLDEQYLASVGGPDDNTVVLWDVKTGRPLCGAPAHHTETKAIAFFNNNSEKLITGGVGSLLVWTVDLEQRKMNSVDINMGNMRRSVQTISIEKTDKYVYCGTTSGDVICAQLQQANVFKMQGPQKKLSGGILSTILTNTGDVLVGSGAGELQLLSKINLTVQNSATVNGGVTALALMGDNYYVGTKTSNLYFVNGGNFMTRLRLTCHSEAVQDVVFPHGFSSVFATCCDTDIRVWNANSCTELLRIEVSNRTCNCLQFSRDGSLIISGWSDGRIRAFGPQSGKLVFSVADAHKVEQGSRSHKVGGKVGVTSVCADNAGHRIITGGSDGLVRVWAIRGATCTLEASMKEHKAAVNAIVISHDDTECVTASDDGSCIVWDLTRYLRRNIMYRQTYFRALEYYVDDSQLITCGSDKCIVYWDSVDCHAIREVCGSRTAELNSLSLSPDGRFFVTGGNDRIVKVWDYDRGECIAVGLAHSCSITKVRVSPDGKKIVSVGDEGAVMVWNIAELAIEGL”: the “soluble on expression in E. coli” value is “not soluble”.

In the case of “GPGSMTNQSDAIFPNILWAQRAELVLITIPLQDATNVVVEIKEGRVLHFEAEAGGEKYRCDVELFREVVSEESRHAAQPRQIDIQLRKKAPLTESGEEEFAQSRSWLRLTRDKSKNSHIQVDWSRWRDEDEDEDETGGLGMDYNDLMSRMMTQKGLGEDDCMDCGNHTDEDGVGPGADKANHSDSDDYDDLPPLEP”, the “soluble on expression in E. coli” value is recorded as “soluble”.

For the sequence “GPGSMVDPSVLLAYCPTHDFQRIEAVVREWPGVEAVGSLRTKEGKENTTSVFIKFSDKEAARDATSRIDAVPGLVRKIEEPKAKQRMRKMGKNMLIDPAMEIFSFGATDKGDVTFNERKREGNRRRHPSVIGPGSGSERTSNKGNNAIRHHPFTPPARASVALVDNVPFNMTNDQVARLFSPFGELIDLSRYETMAMVFYRSPDSVLKCIQQLNGKTVKGKIITVSSGAITIPGLLAAVVGVQVHN”, the “soluble on expression in E. coli” value is given as “soluble”.

With “GPGSMVRSSSSSSAPLWKNQGGGSATAGAVASTTSPWLLRQLALAHFHNGDIQESADAFEQLLRTAPWELTNPALIFYSTALWHLKSESALGSLAQRLTDAEPLSATTLCVVANAYSLIKDPRDALVMLKRAVQVAPTLAYAHALHGYELLGQDSKAEAEAEFKAALAVDASLYIAYAGLGERFMREEQIDKARGYYKEAVKLNPTPAIVNRFALTYHRQGKSLADLKTALRLYTESLERHPNNVTARRQRADVLLRLDQPMQALEELKALLVQCPGEAVVYVTLAECMVCLRRPHEALQHYQTAMHLDPRRESYVQGCIDQLVAANML”, the “soluble on expression in E. coli” value was “soluble”.

For the sequence “GPGSMVTPEQAALIEGAFRSMDRDGTGLVRLEDIFRVFDDSRHPRVRDGELAPAATRDMLMHQFGATAQAHGGVSFDVFMRFHERMAEDAAVAKVNDKELFLTDTIIGVWRLGTLLQPTLIRPLFPVNVRPSGLYATQYMSLVWVDEVAGPGSFVVHVVRDVVRPIFSRGDLPPQLRGMFAYPTELAGMKIIEERLQIATQRWLDFVWEYEEGKHAAVPGIISARVDPDTLPQYLRDMIVEHDVAKAIPSLFFVPTSVAVNPMYKRSSEEYGYGVPEEVKRMSRWKDLTYSGQACGLIYHGRVGKFTRERLNAPVQDVASAMNI”, the “soluble on expression in E. coli” value is on record as “not soluble”.

“GPGSMWTTSMALMSKRSMKYQTKLRHRFRNPSVLPLKQTKAQRDETIRSVLQVRNINPANQSSYRYVEQRLYSTGSRLDREGVKLNTTYALQGLGDLEPLRNSKSFGFSEREALKYDSLQQAAKYEAPPVPFTPLAARKLAEGKLWPSAPEPDGMLSKEVPYLRHRANMSPSAQTFADKIAYHLRRSLKACPAHIAEQMDFAQLIIEEVIASRRSKLVYIVWATVDPAARFAMEPQLHRLNHWVQRLIMERIRTRPNIPQIAWVWNGGRLERELPRELKEEMQAYASDNSSTLEMRVRYLKEMDTVNQRMRNIPWFMPYLWSKEEKAGKTRRMRKDLEEYEQRRLAAKKDQRESERDMSGRSVAPQIGAPPAYVR”: the “soluble on expression in E. coli” value was “not soluble”.

Regarding “GPGSMYFTSAKDVVRLCGGGLAPEVTFAIDDYPATDSIGYNSSAVAGGGGTNVDGASMSNVTTAIQRSLRRASRTAGQPTLRPTRTEQVCGPAVLGAGEALGLAPFKYVCYTVSTTSVVAPASGSASAASKGAKGDGGATYVEFVDAFRIRTSDVHAAVIDIAAQQRAERLQHSPNLYVPWCAAAPGEVVPRGAARTVADFIVAARHRTLYSDYAATELLVRQSWLLQDAAAHTIRALMPHMVPRTYMPGEVMACPHTPGSLRQLCFLRRGRLNVFVVPKSGITPVLLMKGESPDVLVTSRFSRDGCGCWCLRETPTAQPAEVVESGASFGELSVLFHEPRHCILRADTVCDVWCLPRQNFAALMQRDAALRDGLLRKAAVLRVEWMGEQRFTRALAQQLRAGSELLKPLPDIAIRLIQERLEPVIYTPGSLVASTSTRCTEMTFIMRGTVSTIWKVLLHTAQGTCWARDA”, the “soluble on expression in E. coli” value is given as “not soluble”.

For “GPGSRGIDGRQVVRREIKWANMAADWNKTNTKMHAKLKERCRKGIPSRFRGVAWQLLMGSFHQLNSEENNGVYVALRDKKLADKETDVIISRDLARTFPTHVLFQDPGGVGQTFLRNILHAYAGCDPEVGYVQGMGFLVAALSTQMAEGGVLLGPA”, the “soluble on expression in E. coli” value is “not soluble”.

Take “GPHMTTIEDEDTKVRKQEIIKVTEQLIEAISNGDFESYTKMCDPGMTAFEPEALGNLVEGLDFHRFYFENLWSRNSKPVHTTILNPHIHLMGDESACIAYIRITQYLDAGGIPRTAQSEETRVWHRRDGKWQIVHFHRSGAPSVLPH”: the “soluble on expression in E. coli” value is on record as “soluble”.

Consider “GPLGSEVMGPVEAAPEYRVIVDANNLTVEIENELNIIHKFIRDKYSKRFPELESLVPNALDYIRTVKELGNSLDKCKNNENLQQILTNATIMVVSVTASTTQGQQLSEEELERLEEACDMALELNASKHRIYEYVESRMSFIAPNLSIIIGASTAAKIMGVAGGLTNLSKMPACNIMLLGAQRKTLSGFSSTSVLPHTGYIYHSDIVQSLPPDLRRKAARLVAAKCTLAARVDSFHESTEGKVGYELKDEIERKFDKWQE”, for which the “soluble on expression in E. coli” value is listed as “soluble”.

Consider “GPLGSLVNVIRRESGNPDLLELLMDLNCYTLEVTEGYLKKVNVTEVNGDNVLGPIHVITTVVSSLVRNGLLIQSSKFISKVLLTVESIVMSLPKDETMLGGIFWLSNLSRLPAFAANQKTLYEANGGDEKDKLTLIYLNDLENETLKVFDKIYSTWLVKFMKHASAHIEIFDMVLNEKLFKNSGDEKFAKLFTFLNEFDAVLCKFQVVDSMHTKIFNDTLKYLNVMLFNDLITKCPALNWKYGYEVDRNIERLVSWFEPRIEDVRPNLIQIIQAVKILQLKISNLNEFKLLFDFWYALNPAQIQAILLKYKPANKGEAGVPNEILNYLANVIKRENLSLPGKMEIMLSAQFDSAKNHLRYDTSAITQNSNTEGLATVSKIIKLDRK”, for which the “soluble on expression in E. coli” value was “soluble”.

For the sequence “GPLGSMASATLGSSSSSASPAVAELCQNTPETFLEASKLLLTYADNILRNPSDEKYRSIRIGNTAFSTRLLPVRGAVECLFEMGFEEGETHLIFPKKASVEQLQKIRDLIAIERSSRLDGSSKK”, the “soluble on expression in E. coli” value is recorded as “soluble”.

With “GPLGSMEPPLPVGAQPLATVEGMEMKGPLREPCALTLAQRNGQYELIIQLHEKEQHVQDIIPINSHFRCVQEAEETLLIDIASNSGCKIRVQGDWIRERRFEIPDEEHCLKFLSAVLAAQKAQS”, the “soluble on expression in E. coli” value was “soluble”.

For “GPLGSMPEVRFQQQLEQLNSMGFINREANLQALIATGGDINAAIERLLGSQLS”, the “soluble on expression in E. coli” value is “soluble”.
